The values below are quoted from earlier work in patent publication US20250304696A1, “METHODS AND COMPOSITIONS FOR TREATING BARTH SYNDROME” (PROVENTION BIO, INC., priority 2021, published 2025).

For this data set, the system named is depleted cell types (B cells). As to conditions: patients receiving depleting agents.

Turning to rituximab, the “time to recover the depleted cell types” value is “up to a year”.
As to ocrelizumab, the “time to recover the depleted cell types” value is “up to a year”.

B1: inebilizumab (antibody, chains of the INN, looked up, V domains shown)
VH: EVQLVESGGGLVQPGGSLRLSCAASGFTFSSSWMNWVRQAPGKGLEWVGRIYPGDGDTNYNVKFKGRFTISRDDSKNSLYLQMNSLKTEDTAVYYCARSGFITTVRDFDYWGQGTLVTVSS
VL: EIVLTQSPDFQSVTPKEKVTITCRASESVDTFGISFMNWFQQKPDQSPKLLIHEASNQGSGVPSRFSGSGSGTDFTLTINSLEAEDAATYYCQQSKEVPFTFGGGTKVEIK
notes: cell depleting agent
Consider B1, for which the “time to recover the depleted cell types” value is on record as “up to a year”.
